The target in assay [1] is C3b (UniProt P01024). Description: ELISA on plates coated with C3b (5 ug/mL), detection with mouse anti-human CFH antibody and HRP goat anti-mouse, OD450.
The target in assay [2] is C3b (UniProt P01024). Put plainly: cell-based or functional assay.

This is an account of results in US20190071477A1.

Sequence of hSCR (1-7)-mFc fusion protein (chain): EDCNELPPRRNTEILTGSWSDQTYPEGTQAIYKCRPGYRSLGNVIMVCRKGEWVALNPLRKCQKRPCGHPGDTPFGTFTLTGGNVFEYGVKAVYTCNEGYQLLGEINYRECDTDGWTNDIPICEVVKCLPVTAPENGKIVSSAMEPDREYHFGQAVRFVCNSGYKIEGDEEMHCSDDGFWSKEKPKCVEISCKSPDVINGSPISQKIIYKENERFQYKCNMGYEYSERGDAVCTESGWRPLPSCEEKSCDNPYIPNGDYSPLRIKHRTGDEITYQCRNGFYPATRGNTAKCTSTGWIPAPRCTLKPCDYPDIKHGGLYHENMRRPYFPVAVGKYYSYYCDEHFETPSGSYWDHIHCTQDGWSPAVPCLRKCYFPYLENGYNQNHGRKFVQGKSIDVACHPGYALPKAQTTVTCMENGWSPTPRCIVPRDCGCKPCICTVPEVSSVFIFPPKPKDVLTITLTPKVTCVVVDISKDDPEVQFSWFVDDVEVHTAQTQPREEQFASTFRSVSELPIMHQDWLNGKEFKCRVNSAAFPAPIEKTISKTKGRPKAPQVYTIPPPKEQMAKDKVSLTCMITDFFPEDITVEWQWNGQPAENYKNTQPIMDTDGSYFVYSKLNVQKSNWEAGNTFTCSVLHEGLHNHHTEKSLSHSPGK
Sequence of hSCR (1-7)-hSCR (18-20)-hFc fusion protein (P08603 other isoform, or with tags, fused parts or gaps limits assumed): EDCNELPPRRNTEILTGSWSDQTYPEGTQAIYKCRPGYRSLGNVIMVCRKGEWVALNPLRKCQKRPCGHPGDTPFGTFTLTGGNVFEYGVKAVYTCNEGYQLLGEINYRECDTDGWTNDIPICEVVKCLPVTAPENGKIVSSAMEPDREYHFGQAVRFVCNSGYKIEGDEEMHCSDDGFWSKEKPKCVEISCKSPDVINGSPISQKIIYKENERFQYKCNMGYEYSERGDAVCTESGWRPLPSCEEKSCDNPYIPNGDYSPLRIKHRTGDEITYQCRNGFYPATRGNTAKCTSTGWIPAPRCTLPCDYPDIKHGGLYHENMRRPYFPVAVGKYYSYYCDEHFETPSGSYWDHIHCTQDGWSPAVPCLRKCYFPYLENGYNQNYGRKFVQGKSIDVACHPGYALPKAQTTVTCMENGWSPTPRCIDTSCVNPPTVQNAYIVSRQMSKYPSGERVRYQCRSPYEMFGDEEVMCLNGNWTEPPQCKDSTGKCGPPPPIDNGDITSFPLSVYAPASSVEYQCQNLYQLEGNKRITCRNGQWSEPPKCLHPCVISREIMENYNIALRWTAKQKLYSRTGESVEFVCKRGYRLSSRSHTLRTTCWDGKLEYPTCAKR
Sequence of human CFH (complement Factor H) (P08603 19-1231 limits assumed): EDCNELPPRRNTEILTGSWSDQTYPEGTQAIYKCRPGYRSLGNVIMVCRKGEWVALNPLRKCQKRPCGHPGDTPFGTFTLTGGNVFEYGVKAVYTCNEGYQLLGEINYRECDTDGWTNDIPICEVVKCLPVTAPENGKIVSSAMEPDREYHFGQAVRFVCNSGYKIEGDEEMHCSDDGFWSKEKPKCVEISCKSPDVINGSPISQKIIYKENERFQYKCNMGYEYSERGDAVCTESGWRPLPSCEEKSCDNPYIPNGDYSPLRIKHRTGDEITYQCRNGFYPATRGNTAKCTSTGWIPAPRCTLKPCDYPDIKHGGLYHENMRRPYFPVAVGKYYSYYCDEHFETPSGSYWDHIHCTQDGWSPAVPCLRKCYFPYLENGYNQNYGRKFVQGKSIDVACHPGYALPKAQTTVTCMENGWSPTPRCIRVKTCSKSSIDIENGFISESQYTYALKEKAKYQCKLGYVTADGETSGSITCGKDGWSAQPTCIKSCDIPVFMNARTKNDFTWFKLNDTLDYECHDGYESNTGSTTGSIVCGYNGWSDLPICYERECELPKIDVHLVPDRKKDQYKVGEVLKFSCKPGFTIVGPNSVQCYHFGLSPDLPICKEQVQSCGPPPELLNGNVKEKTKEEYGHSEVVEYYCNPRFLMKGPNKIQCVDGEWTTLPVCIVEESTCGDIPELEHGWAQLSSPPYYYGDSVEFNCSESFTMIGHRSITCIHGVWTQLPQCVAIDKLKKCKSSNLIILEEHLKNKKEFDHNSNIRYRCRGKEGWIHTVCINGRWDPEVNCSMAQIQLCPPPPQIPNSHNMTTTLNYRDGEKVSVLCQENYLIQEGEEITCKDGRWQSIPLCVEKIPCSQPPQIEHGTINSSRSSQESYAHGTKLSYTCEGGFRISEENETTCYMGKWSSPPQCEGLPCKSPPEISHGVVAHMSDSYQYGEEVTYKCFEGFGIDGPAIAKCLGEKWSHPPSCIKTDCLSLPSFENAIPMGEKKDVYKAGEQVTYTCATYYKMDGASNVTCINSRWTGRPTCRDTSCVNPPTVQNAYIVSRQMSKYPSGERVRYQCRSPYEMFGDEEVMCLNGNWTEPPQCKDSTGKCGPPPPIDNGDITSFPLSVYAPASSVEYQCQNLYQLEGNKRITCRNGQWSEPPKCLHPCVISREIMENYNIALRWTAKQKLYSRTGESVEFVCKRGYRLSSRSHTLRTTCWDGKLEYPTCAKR

With hSCR (1-7)-hFc fusion protein, the EC50 (read off the curve) in the assay with C3b [1] was 30 nM. In the assay with C3b [2], this substance showed an IC50, inhibition of rabbit red blood cell hemolysis mediated by the alternative complement pathway of 74 nM and a hemolysis inhibiting activity relative to human CFH of 5 times.

“hSCR (1-7)-hSCR (18-20)-hFc fusion protein (from UniProt P08603 19-1231)”: the IC50, inhibition of rabbit red blood cell hemolysis mediated by the alternative complement pathway with C3b [2] came out at 330 nM.

As to hSCR (1-7)-mFc fusion protein, the EC50 (read off the curve) with C3b [1] came out at 30 nM. In addition, the IC50, inhibition of rabbit red blood cell hemolysis mediated by the alternative complement pathway in the assay with C3b [2] was determined as 86 nM.

In the case of “human CFH (complement Factor H) (from UniProt P08603 19-1231)”, the IC50, inhibition of rabbit red blood cell hemolysis mediated by the alternative complement pathway in the assay with C3b [2] was found to be 370 nM.
